# From US20100248359A1 (Chugai, published 2010)
# How the values were obtained:
# full-length human GPC3 [1] = molecular target: T1, full-length human GPC3 (human, UniProt P51654 25-554); assay: flow cytometry, antibody at 5 µg/mL, CHO cells expressing human GPC3 (column CHO/human GPC3)
# T1 construct: On CHO (DXB11) or SK-HEP-1 (SK-03) transfectants; also used here for the GPC3 on the hepatoma lines HepG2 and HuH-7; also called human glypican 3
# [2] = molecular target: T2, soluble form of GPC3 core protein (human, UniProt P51654 25-563); assay: ELISA on plate coated with soluble GPC3 core protein
# T2 construct: not shown: His tag added to the C-terminus
# full-length human GPC3 [3] = molecular target: T1, full-length human GPC3; assay: flow cytometry, antibody at 5 µg/mL, HepG2 cells
# [4] = molecular target: T3, GC-3 (GST fusion of GPC3 Ala524 to Lys563) (human, UniProt P51654 524-563); assay: Western blotting of GST-fusion proteins
# T3 construct: not shown: GST as encoded by pGEX-4T-3 (Amersham), N-terminal to the GPC3 peptide
# T3 chain: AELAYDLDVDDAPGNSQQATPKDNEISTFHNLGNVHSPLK
# full-length human GPC3 [5] = molecular target: T1, full-length human GPC3; assay: flow cytometry, antibody at 5 µg/mL, HuH-7 cells
# [6] = molecular target: T2, soluble form of GPC3 core protein; assay: ELISA on plate coated with soluble GPC3 core protein; antibody from COS7 culture supernatant [middle left panel]
# [7] = molecular target: T2, soluble form of GPC3 core protein; assay: ELISA on plate coated with soluble GPC3 core protein; antibody from COS7 culture supernatant [lower left panel]
# [8] = molecular target: T2, soluble form of GPC3 core protein; assay: ELISA on plate coated with soluble GPC3 core protein; antibody from COS7 culture supernatant [middle right panel]
# [9] = molecular target: T2, soluble form of GPC3 core protein; assay: ELISA on plate coated with soluble GPC3 core protein; antibody from COS7 culture supernatant [upper left panel]
# [10] = molecular target: T2, soluble form of GPC3 core protein; assay: ELISA on plate coated with soluble GPC3 core protein; antibody from COS7 culture supernatant [upper right panel]
# T1 sequence (P51654 25-554 limits assumed): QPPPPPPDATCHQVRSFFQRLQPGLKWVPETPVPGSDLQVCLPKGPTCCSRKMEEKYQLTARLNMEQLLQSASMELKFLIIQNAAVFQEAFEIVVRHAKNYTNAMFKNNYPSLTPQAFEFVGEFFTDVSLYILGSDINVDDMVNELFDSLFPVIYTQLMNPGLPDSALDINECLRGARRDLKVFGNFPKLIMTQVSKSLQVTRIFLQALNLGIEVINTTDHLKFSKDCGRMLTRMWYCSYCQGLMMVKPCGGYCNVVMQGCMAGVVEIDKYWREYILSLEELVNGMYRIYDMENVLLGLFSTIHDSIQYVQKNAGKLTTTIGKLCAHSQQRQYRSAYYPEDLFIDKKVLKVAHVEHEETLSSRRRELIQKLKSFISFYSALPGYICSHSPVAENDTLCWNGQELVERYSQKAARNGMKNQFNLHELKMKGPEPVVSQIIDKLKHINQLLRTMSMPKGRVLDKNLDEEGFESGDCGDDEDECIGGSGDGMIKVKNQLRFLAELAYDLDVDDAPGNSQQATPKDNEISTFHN
binder,measurement,setting,value
"GC199 (antibody, V domains shown, Mouse monoclonal from a mouse immunized with GC-3; also called GC199 antibody) VH: QIQLEQSGPELKKPGETVKISCKASGYIFRDYSMHWVKQAPGKGLKWMGWINTETGEPTYADDFKGRFAFSLETSASTAYLQINNLKNEDTATYFCTSLYWGQGTLVTVSA VL: not shown",FACS X-mode value of the histogram,full-length human GPC3 [1],15.5
same,EC50,[2],0.1 nM
same,FACS X-mode value of the histogram,full-length human GPC3 [3],12.2
same,binding result,[4],binds
same,FACS X-mode value of the histogram,full-length human GPC3 [5],2.4
"G34P (antibody, V domains shown, also called modified humanized GC33 (H chain ver.k, L chain G34P)) VH: QVQLVQSGAEVKKPGASVKVSCKASGYTFTDYEMHWVRQAPGQGLEWMGALDPKTGDTAYSQKFKGRVTLTADKSTSTAYMELSSLTSEDTAVYYCTRFYSYTYWGQGTLVTVSS VL: DVVMTQSPLSLPVTPGEPASISCRSSQSLVHSNPNTYLHWYLQKPGQSPQLLIYKVSNRFSGVPDRFSGSGSGTDFTLKISRVEAEDVGVYYCSQNTHVPPTFGQGTKLEIK",EC50 (read off the curve),[6],~0.03 µg/mL
"GC33 (antibody, V domains shown, Mouse monoclonal from a mouse immunized with GC-3; also called GC33 antibody) VH: QVQLQQSGAELVRPGASVKLSCKASGYTFTDYEMHWVKQTPVHGLKWIGALDPKTGDTAYSQKFKGKATLTADKSSSTAYMELRSLTSEDSAVYYCTRFYSYTYWGQGTLVTVSA VL: DVVMTQTPLSLPVSLGDQASISCRSSQSLVHSNGNTYLHWYLQKPGQSPKLLIYKVSNRFSGVPDRFSGSGSGTDFTLKISRVEAEDLGVYFCSQNTHVPPTFGSGTKLEIK",FACS X-mode value of the histogram,full-length human GPC3 [1],82.7
same,EC50,[2],0.24 nM
same,FACS X-mode value of the histogram,full-length human GPC3 [3],52
same,binding result,[4],binds
same,FACS X-mode value of the histogram,full-length human GPC3 [5],8.4
"G34V (antibody, V domains shown, also called modified humanized GC33 (H chain ver.k, L chain G34V)) VH: QVQLVQSGAEVKKPGASVKVSCKASGYTFTDYEMHWVRQAPGQGLEWMGALDPKTGDTAYSQKFKGRVTLTADKSTSTAYMELSSLTSEDTAVYYCTRFYSYTYWGQGTLVTVSS VL: DVVMTQSPLSLPVTPGEPASISCRSSQSLVHSNVNTYLHWYLQKPGQSPQLLIYKVSNRFSGVPDRFSGSGSGTDFTLKISRVEAEDVGVYYCSQNTHVPPTFGQGTKLEIK",EC50 (read off the curve),[7],~0.02 µg/mL
"modified humanized GC33 (H chain ver.k, L chain G34I) (antibody, human IgG1, V domains shown, COS7 supernatant; human IgG1/kappa) VH: QVQLVQSGAEVKKPGASVKVSCKASGYTFTDYEMHWVRQAPGQGLEWMGALDPKTGDTAYSQKFKGRVTLTADKSTSTAYMELSSLTSEDTAVYYCTRFYSYTYWGQGTLVTVSS VL: DVVMTQSPLSLPVTPGEPASISCRSSQSLVHSNINTYLHWYLQKPGQSPQLLIYKVSNRFSGVPDRFSGSGSGTDFTLKISRVEAEDVGVYYCSQNTHVPPTFGQGTKLEIK",EC50 (read off the curve),[8],~0.02 µg/mL
"modified humanized GC33 (H chain ver.k, L chain G34N) (antibody, human IgG1, V domains shown, COS7 supernatant; human IgG1/kappa) VH: QVQLVQSGAEVKKPGASVKVSCKASGYTFTDYEMHWVRQAPGQGLEWMGALDPKTGDTAYSQKFKGRVTLTADKSTSTAYMELSSLTSEDTAVYYCTRFYSYTYWGQGTLVTVSS VL: DVVMTQSPLSLPVTPGEPASISCRSSQSLVHSNNNTYLHWYLQKPGQSPQLLIYKVSNRFSGVPDRFSGSGSGTDFTLKISRVEAEDVGVYYCSQNTHVPPTFGQGTKLEIK",EC50 (read off the curve),[6],~0.02 µg/mL
"modified humanized GC33 (H chain ver.k, L chain G34D) (antibody, human IgG1, V domains shown, COS7 supernatant; human IgG1/kappa) VH: QVQLVQSGAEVKKPGASVKVSCKASGYTFTDYEMHWVRQAPGQGLEWMGALDPKTGDTAYSQKFKGRVTLTADKSTSTAYMELSSLTSEDTAVYYCTRFYSYTYWGQGTLVTVSS VL: DVVMTQSPLSLPVTPGEPASISCRSSQSLVHSNDNTYLHWYLQKPGQSPQLLIYKVSNRFSGVPDRFSGSGSGTDFTLKISRVEAEDVGVYYCSQNTHVPPTFGQGTKLEIK",EC50 (read off the curve),[9],~0.02 µg/mL
"modified humanized GC33 (H chain ver.k, L chain G34H) (antibody, human IgG1, V domains shown, COS7 supernatant; human IgG1/kappa) VH: QVQLVQSGAEVKKPGASVKVSCKASGYTFTDYEMHWVRQAPGQGLEWMGALDPKTGDTAYSQKFKGRVTLTADKSTSTAYMELSSLTSEDTAVYYCTRFYSYTYWGQGTLVTVSS VL: DVVMTQSPLSLPVTPGEPASISCRSSQSLVHSNHNTYLHWYLQKPGQSPQLLIYKVSNRFSGVPDRFSGSGSGTDFTLKISRVEAEDVGVYYCSQNTHVPPTFGQGTKLEIK",EC50 (read off the curve),[10],~0.02 µg/mL
"modified humanized GC33 (H chain ver.k, L chain G34Y) (antibody, human IgG1, V domains shown, COS7 supernatant; human IgG1/kappa) VH: QVQLVQSGAEVKKPGASVKVSCKASGYTFTDYEMHWVRQAPGQGLEWMGALDPKTGDTAYSQKFKGRVTLTADKSTSTAYMELSSLTSEDTAVYYCTRFYSYTYWGQGTLVTVSS VL: DVVMTQSPLSLPVTPGEPASISCRSSQSLVHSNYNTYLHWYLQKPGQSPQLLIYKVSNRFSGVPDRFSGSGSGTDFTLKISRVEAEDVGVYYCSQNTHVPPTFGQGTKLEIK",EC50 (read off the curve),[7],~0.02 µg/mL
"modified humanized GC33 (H chain ver.k, L chain G34K) (antibody, human IgG1, V domains shown, COS7 supernatant; human IgG1/kappa) VH: QVQLVQSGAEVKKPGASVKVSCKASGYTFTDYEMHWVRQAPGQGLEWMGALDPKTGDTAYSQKFKGRVTLTADKSTSTAYMELSSLTSEDTAVYYCTRFYSYTYWGQGTLVTVSS VL: DVVMTQSPLSLPVTPGEPASISCRSSQSLVHSNKNTYLHWYLQKPGQSPQLLIYKVSNRFSGVPDRFSGSGSGTDFTLKISRVEAEDVGVYYCSQNTHVPPTFGQGTKLEIK",EC50 (read off the curve),[8],~0.02 µg/mL
"modified humanized GC33 (H chain ver.k, L chain G34A) (antibody, human IgG1, V domains shown, COS7 supernatant; human IgG1/kappa) VH: QVQLVQSGAEVKKPGASVKVSCKASGYTFTDYEMHWVRQAPGQGLEWMGALDPKTGDTAYSQKFKGRVTLTADKSTSTAYMELSSLTSEDTAVYYCTRFYSYTYWGQGTLVTVSS VL: DVVMTQSPLSLPVTPGEPASISCRSSQSLVHSNANTYLHWYLQKPGQSPQLLIYKVSNRFSGVPDRFSGSGSGTDFTLKISRVEAEDVGVYYCSQNTHVPPTFGQGTKLEIK",EC50 (read off the curve),[9],~0.02 µg/mL
"modified humanized GC33 (H chain ver.k, L chain G34Q) (antibody, human IgG1, V domains shown, COS7 supernatant; human IgG1/kappa) VH: QVQLVQSGAEVKKPGASVKVSCKASGYTFTDYEMHWVRQAPGQGLEWMGALDPKTGDTAYSQKFKGRVTLTADKSTSTAYMELSSLTSEDTAVYYCTRFYSYTYWGQGTLVTVSS VL: DVVMTQSPLSLPVTPGEPASISCRSSQSLVHSNQNTYLHWYLQKPGQSPQLLIYKVSNRFSGVPDRFSGSGSGTDFTLKISRVEAEDVGVYYCSQNTHVPPTFGQGTKLEIK",EC50 (read off the curve),[6],~0.02 µg/mL
"modified humanized GC33 (H chain ver.k, L chain G34W) (antibody, human IgG1, V domains shown, COS7 supernatant; human IgG1/kappa) VH: QVQLVQSGAEVKKPGASVKVSCKASGYTFTDYEMHWVRQAPGQGLEWMGALDPKTGDTAYSQKFKGRVTLTADKSTSTAYMELSSLTSEDTAVYYCTRFYSYTYWGQGTLVTVSS VL: DVVMTQSPLSLPVTPGEPASISCRSSQSLVHSNWNTYLHWYLQKPGQSPQLLIYKVSNRFSGVPDRFSGSGSGTDFTLKISRVEAEDVGVYYCSQNTHVPPTFGQGTKLEIK",EC50 (read off the curve),[7],~0.02 µg/mL
"GC179 (antibody, V domains shown, Mouse monoclonal from a mouse immunized with GC-3) VH: EVQLVETGGGLVQPEGSLKLSCAASGFSFNINAMNWVRQAPGKGLEWVARIRSESNNYATYYGDSVKDRFTISRDDSQNMLYLQMNNLKTEDTAIYYCVREVTTSFAYWGQGTLVTVSA VL: DIVMTQSAPSVPVTPGESVSISCKSSKSLLHSNGNTYLNWFLQRPGQSPQLLIYWMSNLASGVPDRFSGSGSGTAFTLRISRVEAEDVGVYYCMQHIEYPFTFGTGTKLEIK",FACS X-mode value of the histogram,full-length human GPC3 [1],7.1
same,EC50,[2],5.61 nM
same,FACS X-mode value of the histogram,full-length human GPC3 [3],6.5
same,binding result,[4],binds
same,FACS X-mode value of the histogram,full-length human GPC3 [5],3.8
